Data on three variants can be found in IntAct's records for PubMed 15252009.

Sequences and labels used below:
B1: Formin-binding protein 1 (Homo sapiens), Q96RU3 (parent)
chain: MSWGTELWDQFDNLEKHTQWGIDILEKYIKFVKERTEIELSYAKQLRNLSKKYQPKKNSKEEEEYKYTSCKAFISNLNEMNDYAGQHEVISENMASQIIVDLARYVQELKQERKSNFHDGRKAQQHIETCWKQLESSKRRFERDCKEADRAQQYFEKMDADINVTKADVEKARQQAQIRHQMAEDSKADYSSILQKFNHEQHEYYHTHIPNIFQKIQEMEERRIVRMGESMKTYAEVDRQVIPIIGKCLDGIVKAAESIDQKNDSQLVIEAYKSGFEPPGDIEFEDYTQPMKRTVSDNSLSNSRGEGKPDLKFGGKSKGKLWPFIKKNKLMSLLTSPHQPPPPPPASASPSAVPNGPQSPKQQKEPLSHRFNEFMTSKPKIHCFRSLKRGLSLKLGATPEDFSNLPPEQRRKKLQQKVDELNKEIQKEMDQRDAITKMKDVYLKNPQMGDPASLDHKLAEVSQNIEKLRVETQKFEAWLAEVEGRLPARSEQARRQSGLYDSQNPPTVNNCAQDRESPDGSYTEEQSQESEMKVLATDFDDEFDDEEPLPAIGTCKALYTFEGQNEGTISVVEGETLYVIEEDKGDGWTRIRRNEDEEGYVPTSYVEVCLDKNAKDS
partner: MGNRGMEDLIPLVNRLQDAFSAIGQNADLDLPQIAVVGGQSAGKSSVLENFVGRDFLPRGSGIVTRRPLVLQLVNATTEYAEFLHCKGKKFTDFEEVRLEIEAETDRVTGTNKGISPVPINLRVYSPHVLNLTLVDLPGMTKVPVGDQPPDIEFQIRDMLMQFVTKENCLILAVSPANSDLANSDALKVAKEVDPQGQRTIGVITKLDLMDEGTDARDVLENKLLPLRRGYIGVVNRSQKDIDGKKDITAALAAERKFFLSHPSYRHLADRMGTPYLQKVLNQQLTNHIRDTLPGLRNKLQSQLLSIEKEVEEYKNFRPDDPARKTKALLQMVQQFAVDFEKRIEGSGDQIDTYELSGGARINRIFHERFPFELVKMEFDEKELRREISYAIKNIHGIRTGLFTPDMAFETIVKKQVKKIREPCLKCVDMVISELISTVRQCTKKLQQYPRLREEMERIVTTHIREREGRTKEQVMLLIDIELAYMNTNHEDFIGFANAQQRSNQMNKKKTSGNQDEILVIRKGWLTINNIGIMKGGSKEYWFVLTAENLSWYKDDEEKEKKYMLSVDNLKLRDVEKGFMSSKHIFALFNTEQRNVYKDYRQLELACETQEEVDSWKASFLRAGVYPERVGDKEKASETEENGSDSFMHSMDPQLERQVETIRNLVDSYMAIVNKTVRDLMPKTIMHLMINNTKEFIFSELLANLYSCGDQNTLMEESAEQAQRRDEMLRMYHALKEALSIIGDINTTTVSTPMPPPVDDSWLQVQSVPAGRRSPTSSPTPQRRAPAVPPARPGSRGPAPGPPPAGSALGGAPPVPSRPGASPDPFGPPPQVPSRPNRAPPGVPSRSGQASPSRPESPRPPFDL
B2: Formin-binding protein 1 (Homo sapiens), Q96RU3 (parent)
chain: B1 chain
partner: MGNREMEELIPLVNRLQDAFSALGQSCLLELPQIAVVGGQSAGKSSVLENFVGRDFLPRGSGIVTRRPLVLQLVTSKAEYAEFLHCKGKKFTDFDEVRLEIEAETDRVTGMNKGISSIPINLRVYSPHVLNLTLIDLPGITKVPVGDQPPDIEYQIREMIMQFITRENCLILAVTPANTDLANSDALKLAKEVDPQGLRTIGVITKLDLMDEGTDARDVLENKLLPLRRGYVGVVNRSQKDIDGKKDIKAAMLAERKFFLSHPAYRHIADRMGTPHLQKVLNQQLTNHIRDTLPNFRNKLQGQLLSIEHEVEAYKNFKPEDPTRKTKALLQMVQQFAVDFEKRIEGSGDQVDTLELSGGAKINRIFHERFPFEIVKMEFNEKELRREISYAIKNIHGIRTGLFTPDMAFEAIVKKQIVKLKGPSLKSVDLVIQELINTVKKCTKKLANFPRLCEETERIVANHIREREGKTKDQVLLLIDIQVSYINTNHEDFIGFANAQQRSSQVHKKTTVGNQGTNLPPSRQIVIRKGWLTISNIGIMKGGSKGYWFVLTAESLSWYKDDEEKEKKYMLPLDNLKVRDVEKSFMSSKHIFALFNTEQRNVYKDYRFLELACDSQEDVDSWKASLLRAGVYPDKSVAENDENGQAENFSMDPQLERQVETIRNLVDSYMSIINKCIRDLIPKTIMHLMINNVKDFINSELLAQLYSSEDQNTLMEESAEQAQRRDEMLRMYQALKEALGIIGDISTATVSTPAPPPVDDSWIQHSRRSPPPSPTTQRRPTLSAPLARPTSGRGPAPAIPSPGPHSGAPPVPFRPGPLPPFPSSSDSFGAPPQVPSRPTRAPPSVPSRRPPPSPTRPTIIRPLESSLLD
B3: Formin-binding protein 1 (Homo sapiens), Q96RU3 (parent)
chain: B1 chain
partner: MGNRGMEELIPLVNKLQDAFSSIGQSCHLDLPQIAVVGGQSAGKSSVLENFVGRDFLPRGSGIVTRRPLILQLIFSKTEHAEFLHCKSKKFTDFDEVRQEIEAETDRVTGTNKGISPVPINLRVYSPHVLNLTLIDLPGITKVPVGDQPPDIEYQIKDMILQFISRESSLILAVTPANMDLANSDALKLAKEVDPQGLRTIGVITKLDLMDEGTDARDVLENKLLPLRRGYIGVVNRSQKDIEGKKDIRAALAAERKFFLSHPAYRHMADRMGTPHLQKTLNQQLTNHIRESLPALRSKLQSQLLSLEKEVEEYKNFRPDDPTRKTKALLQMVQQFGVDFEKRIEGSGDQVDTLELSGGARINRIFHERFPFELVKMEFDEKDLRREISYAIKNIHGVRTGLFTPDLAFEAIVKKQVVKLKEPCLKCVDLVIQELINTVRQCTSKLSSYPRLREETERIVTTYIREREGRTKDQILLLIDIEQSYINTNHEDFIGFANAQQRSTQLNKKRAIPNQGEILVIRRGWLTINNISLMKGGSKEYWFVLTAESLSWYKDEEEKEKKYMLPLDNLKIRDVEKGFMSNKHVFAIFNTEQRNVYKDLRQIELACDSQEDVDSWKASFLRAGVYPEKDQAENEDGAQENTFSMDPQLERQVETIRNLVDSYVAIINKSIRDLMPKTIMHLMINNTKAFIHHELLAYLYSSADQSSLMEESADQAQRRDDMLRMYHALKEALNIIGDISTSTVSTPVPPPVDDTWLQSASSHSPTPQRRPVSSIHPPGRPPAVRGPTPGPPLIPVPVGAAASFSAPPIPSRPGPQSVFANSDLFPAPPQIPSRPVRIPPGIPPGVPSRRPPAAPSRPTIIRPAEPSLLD

The variants in the first assay derive from B1. Conditions: with dyn1_human DNM1, Q05193.
As to P602L, the “effect of a mutation on the interaction” value is listed as “decreasing interaction”.

Variants of B2 are the subject of another assay. Conditions: with dyn3_human DNM3, Q9UQ16.
As to P602L, the “effect of a mutation on the interaction” value is “decreasing interaction”.

In the next assay the parent is B3. As to conditions: with dyn2_human DNM2, P50570.
Regarding P602L, the “effect of a mutation on the interaction” value is reported as “decreasing interaction”.
